The target in the experiment is BclXL_FL, full-length human BclXL (residues 1–233) (human), Q07817. Briefly: ITC. Background: ITC needs no label: the signal is the heat of the interaction.
BclXL_FL, full-length human BclXL (residues 1–233) (human), Q07817, sequence (Q07817 whole entry, the tested form may be a part): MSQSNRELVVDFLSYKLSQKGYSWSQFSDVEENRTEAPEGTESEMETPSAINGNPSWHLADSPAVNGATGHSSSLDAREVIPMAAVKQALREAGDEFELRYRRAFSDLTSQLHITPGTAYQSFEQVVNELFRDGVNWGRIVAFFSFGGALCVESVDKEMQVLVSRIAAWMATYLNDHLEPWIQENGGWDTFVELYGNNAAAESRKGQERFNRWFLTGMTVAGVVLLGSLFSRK

B1: Bid_BH3 peptide (20-mer spanning the BH3 domain of human Bid) (peptide)
chain: DIIRNIARHLAQVGDSMDRS
modifications: not checked
Broadly, the Kd is the free concentration of one partner at which half of the binding sites on the other are occupied at equilibrium, for simple one-to-one binding. High values mean lower affinity, low ones higher affinity. B1: the Kd was 9.97 µM and the dH was -18.7 kcal/mol.

Source of the values: publication PMC3268818.
